These results are taken from paper PMC5828360 (PLoS ONE, 2018).

Bridges are numbered along the chain shown (N, C = ends). [ ]: non-standard residue; d: D form. The star is where a group is joined. Pen = CC(C)(S)[C@H](N)C(=O)O; Thz = O=C(O)[C@@H]1CSCN1; Propionyl = CCC(=O)*

In the assay the target is T1, recombinant mouse LDLR (His-tagged), extracellular domain (mouse, UniProt P35951 22-790).
T1 construct: mouse low-density lipoprotein receptor, extracellular domain; immobilised on a NiHC sensor chip; in the functional rows it stands for the endogenous LDLR of the mouse; also called mLDLR; murine LDLR; source: bought: Sino Biological
Description: SPR; hLDLR or mLDLR (His-tagged) immobilised on a NiHC sensor chip at 35-60 fmol/mm^2; Biacore T200, 25°C; 50 mM HEPES-NaOH pH7.4, 150 mM NaCl, 0.005% Tween-20, 50μM EDTA; single-cycle kinetics; 1:1 Langmuir model. As to conditions: both partners purified. On the technique in general: In SPR one partner is held on a chip, and binding of the other changes the refractive index at the surface.

T1 sequence (P35951 22-790): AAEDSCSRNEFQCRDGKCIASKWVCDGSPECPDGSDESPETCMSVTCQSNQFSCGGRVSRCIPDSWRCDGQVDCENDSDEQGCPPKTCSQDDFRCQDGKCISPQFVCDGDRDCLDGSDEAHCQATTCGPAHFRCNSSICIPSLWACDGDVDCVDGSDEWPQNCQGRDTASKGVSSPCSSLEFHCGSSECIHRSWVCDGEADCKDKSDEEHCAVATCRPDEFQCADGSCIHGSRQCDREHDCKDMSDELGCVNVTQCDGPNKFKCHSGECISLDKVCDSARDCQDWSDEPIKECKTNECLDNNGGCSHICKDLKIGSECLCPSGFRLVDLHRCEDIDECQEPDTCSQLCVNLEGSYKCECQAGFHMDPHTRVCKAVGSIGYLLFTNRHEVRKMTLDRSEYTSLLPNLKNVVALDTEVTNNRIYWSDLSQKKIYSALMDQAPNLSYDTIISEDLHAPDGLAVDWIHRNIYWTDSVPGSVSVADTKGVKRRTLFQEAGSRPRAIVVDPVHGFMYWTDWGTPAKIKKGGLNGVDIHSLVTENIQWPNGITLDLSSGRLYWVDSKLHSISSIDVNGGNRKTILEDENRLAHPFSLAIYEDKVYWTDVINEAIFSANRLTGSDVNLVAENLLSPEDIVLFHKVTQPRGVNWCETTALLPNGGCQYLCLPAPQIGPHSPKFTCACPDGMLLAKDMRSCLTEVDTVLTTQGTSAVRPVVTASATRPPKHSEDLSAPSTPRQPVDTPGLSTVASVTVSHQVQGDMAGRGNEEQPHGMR

In the case of Propionyl-[dC]M[Thz]RLRG[Pen]-NH2 (disulfide 1-8) [VH4127 synthetic cyclic peptide], the Kd stood at 36 ± 1 nM.

B1: VH445 synthetic cyclic peptide (peptide)
peptide: Propionyl-[dC]MPRLRGC-NH2
modifications: disulfide 1-8
notes: printed cMPRLRGC, lower case c = (D)-Cys; also called VH0445; source: synthetic peptide
For B1, the Kd was found to be 233 ± 24 nM.

B2: VH434 synthetic cyclic peptide (peptide)
peptide: Propionyl-CMPRLRGC-NH2
modifications: disulfide 1-8 (inferred)
notes: 8-residue truncation of VH411; source: synthetic peptide
Take B2: the Kd was found to be 280 ± 33 nM.

For orientation: Kd means the equilibrium constant for the complex coming apart.
